From patent US20250197503A1 (published 2025)

B1: h_Nb1 (expressed from pFUSE-hIgG1-Fc) (Fc fusion)
chain: DVQLQESGGGLVQPGGSLRLSCAASGFTFSSYAMSWVRQAPGKGLEWVSDINSGGDNTDYADSVKGRFTISRDNAKNTLYLQMNSLKPEDTAVYYCARGPKLCFSSWGQGTQVTVSS
B2: h_Nb2 (expressed from pFUSE-hIgG1-Fc) (Fc fusion)
chain: DVQLQESGGGLVQPGGSLRLSCAASGFTFGDRWMYWLRQAPGKGLEWVSSINPAGRSTYYADSVKGRFTISRDNAKNTLYLQMNSLKSEDTAVYYCTKDPGGYQKGQGTQVTVSS

Target: human PD-L1 on stably transfected cell line HEK293T/hPD-L1 (human, UniProt Q9NZQ7 19-290)
Sequence (Q9NZQ7 19-290): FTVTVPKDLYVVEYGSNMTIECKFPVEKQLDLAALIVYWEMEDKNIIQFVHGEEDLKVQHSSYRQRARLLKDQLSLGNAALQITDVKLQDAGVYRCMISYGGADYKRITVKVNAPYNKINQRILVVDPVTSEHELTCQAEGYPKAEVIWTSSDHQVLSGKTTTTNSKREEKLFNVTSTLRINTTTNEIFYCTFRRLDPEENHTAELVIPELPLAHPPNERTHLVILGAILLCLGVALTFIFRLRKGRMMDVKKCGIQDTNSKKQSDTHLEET
Test: FACS blocking of human PD-1/PD-L1 binding

Row | Binder | IC50 [mg/L]
1 | B1 | 0.751
2 | B2 | 0.106
